Here are results for 1 protein from article PMC5437232, “Structure of human promyeloperoxidase (proMPO) and the role of the propeptide in processing and maturation” (The Journal of Biological Chemistry, 2017).

This data set deals with the molecule itself. As to the kind of experiment: SAXS; proteins in solution, 50 mM PBS, pH 7.4; concentrated to 1 mg/liter; 20 °C; SIBYLS beam line 12.3.1; Guinier plots and pair-density distributions compared with the crystal structures.

B1: dimeric mature leukocyte myeloperoxidase (complex)
light: not shown
heavy: TGVNCETSCVQQPPCFPLKIPPNDPRIKNQADCIPFFRSCPACPGSNITIRNQINALTSFVDASMVYGSEEPLARNLRNMSNQLGLLAVNQRFQDNGRALLPFDNLHDDPCLLTNRSARIPCFLAGDTRSSEMPELTSMHTLLLREHNRLATELKSLNPRWDGERLYQEARKIVGAMVQIITYRDYLPLVLGPTAMRKYLPTYRSYNDSVDPRIANVFTNAFRYGHTLIQPFMFRLDNRYQPMEPNPRVPLSRVFFASWRVVLEGGIDPILRGLMATPAKLNRQNQIAVDEIRERLFEQVMRIGLDLPALNMQRSRDHGLPGYNAWRRFCGLPQPETVGQLGTVLRNLKLARKLMEQYGTPNNIDIWMGGVSEPLKRKGRVGPLLACIIGTQFRKLRDGDRFWWENEGVFSMQQRQALAQISLPRIICDNTGITTVSKNNIFMSNSYPRDFVNCSTLPALNLASWREAS
modifications: heme covalently bound | glycosylated; heme covalently bound; interchain disulfide Cys-319-Cys-319 between the two H-chains
notes: Myeloperoxidase, human, 14.5-kDa light polypeptide (L-chain) of mature MPO; three N termini found by mass spectrometry: Gly-164, Val-165 and Thr-166; ends before the excised peptide that begins at Ala-273; numbers on the 745-aa primary translation product; Myeloperoxidase, human, 59-kDa heavy polypeptide (H-chain) of mature MPO; three N termini found by mass spectrometry: Thr-277, Gly-278 and …
Consider B1, for which the “stoichiometry N” value was 2.

For orientation: stoichiometry N means the number of molecules, sites or subunits per partner or assembly.
